The assay addresses B7 QDP/LEK (mouse) (UniProt Q00609). Kind of assay: flow cytometry on cells.

Sequence of CTLA4Ig (P09793 36-161): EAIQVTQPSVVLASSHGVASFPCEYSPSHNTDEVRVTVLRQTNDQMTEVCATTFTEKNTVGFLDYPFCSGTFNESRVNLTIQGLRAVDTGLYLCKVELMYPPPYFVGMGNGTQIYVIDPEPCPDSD

Take “CTLA4Ig (from UniProt P09793 36-161) (Fc fusion)”: the % wild-type B7 binding (normalised to anti-B7 mAb 10.16A.1) stood at 15% and the MF (mean fluorescence, control subtracted) was 42 MF.

Source of the values: paper PMC2191977 (The Journal of Experimental Medicine, 1995).
